Data as given in the supplement of paper PMC9233669.
Fewer inactive variants are shown than the library holds.

What was measured:
biotinyl-Leu-oxazolone = assay: self-aminoacylation, catalytic enhancement (BLO) (fold over background); higher = more active; k-Seq, kA / k0A0; sequences stand for … in GGGAAUGGAUCCACAUCUACGAAUUC…UUCACUGCAGACUUGACGAAGCUG
Procedure, shortened: (§1)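 Mutagenized RNA pools with a 21-nt variable region (0.43 μM) were reacted with each biotinyl-aminoacyl-oxazolone at 2–1250 μM for 90 minutes at room temperature, in 50 μL HEPES/NaCl/KCl/MgCl2/CaCl2 buffer containing 5% acetonitrile at pH 6.9–7.0. RNA captured on streptavidin was quantified by triplicate qPCR and by Illumina sequencing. The fraction reacted for each sequence was fit to a pseudo-first-order model with bootstrapping, and catalytic enhancement is the median kA divided by the uncatalyzed rate, taken as the low-activity peak of a bimodal Gaussian fit.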

biotinyl-Val-oxazolone = assay: self-aminoacylation, catalytic enhancement (BVO) (fold over background); higher = more active; k-Seq, kA / k0A0; sequences stand for … in GGGAAUGGAUCCACAUCUACGAAUUC…UUCACUGCAGACUUGACGAAGCUG
Procedure, shortened: as §1

biotinyl-Met-oxazolone = assay: self-aminoacylation, catalytic enhancement (BMO) (fold over background); higher = more active; k-Seq, kA / k0A0; sequences stand for … in GGGAAUGGAUCCACAUCUACGAAUUC…UUCACUGCAGACUUGACGAAGCUG
Procedure, shortened: as §1

biotinyl-Phe-oxazolone = assay: self-aminoacylation, catalytic enhancement (BFO) (fold over background); higher = more active; k-Seq, kA / k0A0; sequences stand for … in GGGAAUGGAUCCACAUCUACGAAUUC…UUCACUGCAGACUUGACGAAGCUG
Procedure, shortened: as §1

biotinyl-Ile-oxazolone = assay: self-aminoacylation, catalytic enhancement (BIO) (fold over background); higher = more active; k-Seq, kA / k0A0; sequences stand for … in GGGAAUGGAUCCACAUCUACGAAUUC…UUCACUGCAGACUUGACGAAGCUG
Procedure, shortened: as §1

biotinyl-Trp-oxazolone = assay: self-aminoacylation, catalytic enhancement (BWO) (fold over background); higher = more active; k-Seq, kA / k0A0; sequences stand for … in GGGAAUGGAUCCACAUCUACGAAUUC…UUCACUGCAGACUUGACGAAGCUG
Procedure, shortened: as §1

Row | Sequence | self-aminoacylation (biotinyl-Leu-oxazolone) | self-aminoacylation (biotinyl-Val-oxazolone) | self-aminoacylation (biotinyl-Met-oxazolone) | self-aminoacylation (biotinyl-Phe-oxazolone) | self-aminoacylation (biotinyl-Ile-oxazolone) | self-aminoacylation (biotinyl-Trp-oxazolone)
1 | AUUACCAUGGGCAUCGAGUGA [Fam2.1 aminoacylation ribozyme variant] | 6.48 | 3.13 | 6.01 | 30.7 | 3 | 7.88
2 | AUUACCAUGGUCACCGAGUGA [Fam2.1 aminoacylation ribozyme variant] | 9.1 | 3.41 | 8.17 | 49.9 | 3.34 | 8.6
3 | AUUACCAUGGUCAUAGAGUGA [Fam2.1 aminoacylation ribozyme variant] | 8.72 | 3.51 | 8.44 | 37.6 | 4.13 | 10
4 | AUUACCAUGGUCAUCCAGUGA [Fam2.1 aminoacylation ribozyme variant] | 6.27 | 3.46 | 5.96 | 28.2 | 3.62 | 8
5 | AUUACCAUGGUCAUCGAGCGA [Fam2.1 aminoacylation ribozyme variant] | 1.98 | 1.79 | 2.24 | 1.04 | 1.73 | 1.64
6 | AUUACCAUGGUCAUUGAGUGA [Fam2.1 aminoacylation ribozyme variant] | 12.1 | 5.51 | 11.8 | 63.6 | 5.76 | 13.8
7 | AUUACCAUGGUCGUCGAGUGA [Fam2.1 aminoacylation ribozyme variant] | 1.25 | 1.08 | 1.3 | 0.902 | 1.21 | 1.48
8 | AUUACCAUUGUCAUCGAGUGA [Fam2.1 aminoacylation ribozyme variant] | 8.46 | 4.25 | 7.41 | 40.4 | 4.32 | 10.4
9 | AUUACCCAGGUCAGCGAGUGA [Fam2.1 aminoacylation ribozyme variant] | 5.59 | 3.31 | 5.2 | 34.2 | 3.4 | 6.47
10 | AUUACCCAGGUCAUCCAGUGA [Fam2.1 aminoacylation ribozyme variant] | 5.76 | 3.14 | 5.32 | 24.2 | 3.13 | 6.41
11 | AUUACCCAGGUCAUCGAGGGA [Fam2.1 aminoacylation ribozyme variant] | 1.48 | 1.37 | 1.38 | 1.52 | 1.36 | 1.16
12 | AUUACCCAGGUCAUCGAGUGC [Fam2.1 aminoacylation ribozyme variant] | 0.919 | 0.958 | 0.643 | 0.417 | 0.777 | 0.852
13 | AUUACCCAGGUCAUCGAGUGU [Fam2.1 aminoacylation ribozyme variant] | 2.71 | 2.06 | 2.74 | 2.45 | 1.65 | 3.39
14 | AUUACCCAGGUCAUUGAGUGA [Fam2.1 aminoacylation ribozyme variant] | 9.04 | 4.36 | 8.2 | 53.1 | 4.59 | 10.4
15 | AUUACCCAGGUCCUCGAGUGA [Fam2.1 aminoacylation ribozyme variant] | 3.11 | 2.15 | 2.79 | 10.3 | 2.2 | 3.69
16 | AUUACCCAGGUCGUCGAGUGA [Fam2.1 aminoacylation ribozyme variant] | 0.669 | 0.951 | 0.786 | 0.686 | 0.849 | 0.416
17 | AUUACCCCGGUCAGCGAGUGA [Fam2.1 aminoacylation ribozyme variant] | 4.92 | 3.28 | 4.82 | 31.4 | 3.32 | 5.45
18 | AUUACCCCGGUCAUCGAGAGA [Fam2.1 aminoacylation ribozyme variant] | 0.708 | 0.651 | 0.8 | 1.03 | 0.935 | 1.07
19 | AUUACCCCGGUCAUCGAGGGA [Fam2.1 aminoacylation ribozyme variant] | 1.07 | 1.93 | 1.21 | 2.68 | 1.15 | 1.67
20 | AUUACCCCGGUCAUCGAGUGU [Fam2.1 aminoacylation ribozyme variant] | 2.45 | 1.87 | 2.58 | 9.98 | 1.56 | 3.57
21 | AUUACCCCGGUCAUCGCGUGA [Fam2.1 aminoacylation ribozyme variant] | 24.3 | 11.8 | 23.7 | 174 | 11.2 | 23.8
22 | AUUACCCCGGUCCUCGAGUGA [Fam2.1 aminoacylation ribozyme variant] | 3.97 | 2.21 | 3.32 | 25.5 | 2.29 | 4.82
23 | AUUACCCCGGUCGUCGAGUGA [Fam2.1 aminoacylation ribozyme variant] | 1.41 | 1 | 1.39 | 2.06 | 0.914 | 0.938
24 | AUUACCCGCGUCAUCGAGUGA [Fam2.1 aminoacylation ribozyme variant] | 4.6 | 2.8 | 4.55 | 24.9 | 2.37 | 5.55
25 | AUUACCCGGGGCAUCGAGUGA [Fam2.1 aminoacylation ribozyme variant] | 10.2 | 4.54 | 8.31 | 62.9 | 5.21 | 11.5
26 | AUUACCCGGGUCACCGAGUGA [Fam2.1 aminoacylation ribozyme variant] | 21.4 | 8.28 | 19.3 | 145 | 6.79 | 19.5

Row | Sequence | self-aminoacylation (biotinyl-Leu-oxazolone) | self-aminoacylation (biotinyl-Val-oxazolone) | self-aminoacylation (biotinyl-Met-oxazolone) | self-aminoacylation (biotinyl-Phe-oxazolone) | self-aminoacylation (biotinyl-Ile-oxazolone) | self-aminoacylation (biotinyl-Trp-oxazolone)
27 | AUUACCCGGGUCAUCGAAUGA [Fam2.1 aminoacylation ribozyme variant] | 1.25 | 1.29 | 0.972 | 0.592 | 1 | 0.515
28 | AUUACCCGGGUCAUCGAGUCA [Fam2.1 aminoacylation ribozyme variant] | 1.22 | 1.16 | 1.32 | 1.05 | 1.29 | 0.967
29 | AUUACCCUACUCAUCGAGUGA [Fam2.1 aminoacylation ribozyme variant] | 6.54 | 3.19 | 7.19 | 35.1 | 3.24 | 9
30 | AUUACCCUAGGUCAUCGGGUG [Fam2.2 aminoacylation ribozyme variant] | 11.9 | 5.13 | 8.02 | 51.7 | 5.23 | 8.1
31 | AUUACCCUAGUAAUCGAGUGA [Fam2.1 aminoacylation ribozyme variant] | 7.45 | 3.18 | 6.75 | 46.5 | 3.08 | 9.47
32 | AUUACCCUAGUCAACGAGUGA [Fam2.1 aminoacylation ribozyme variant] | 5.35 | 3.26 | 5.11 | 25.6 | 3.09 | 6.9
33 | AUUACCCUAGUCAUAGAGUGA [Fam2.1 aminoacylation ribozyme variant] | 7.72 | 3.95 | 7.98 | 32.7 | 4.22 | 9.37
34 | AUUACCCUAGUCAUCCAGUGA [Fam2.1 aminoacylation ribozyme variant] | 2.86 | 1.94 | 2.29 | 3.4 | 1.91 | 3.28
35 | AUUACCCUAGUCAUCGAGUAA [Fam2.1 aminoacylation ribozyme variant] | 1.19 | 1.24 | 1.36 | 0.698 | 1.28 | 0.823
36 | AUUACCCUAGUCAUCGAGUGU [Fam2.1 aminoacylation ribozyme variant] | 2.55 | 1.95 | 2.47 | 6.11 | 1.95 | 2.62
37 | AUUACCCUAGUCAUCGGGUGA [Fam2.1 aminoacylation ribozyme variant] | 8.62 | 4.8 | 7.55 | 49.2 | 4.76 | 9.08
38 | AUUACCCUAGUCAUGGAGUGA [Fam2.1 aminoacylation ribozyme variant] | 4.06 | 2.68 | 4.31 | 15.5 | 2.79 | 5.17
39 | AUUACCCUCGUAAUCGAGUGA [Fam2.1 aminoacylation ribozyme variant] | 17.2 | 7.73 | 16 | 120 | 6.62 | 21.7
40 | AUUACCCUCGUCACCGAGUGA [Fam2.1 aminoacylation ribozyme variant] | 4.63 | 2.74 | 4.34 | 21.2 | 2.33 | 5.5
41 | AUUACCCUCGUCAUCGACUGA [Fam2.1 aminoacylation ribozyme variant] | 0.644 | 0.877 | 0.868 | 0.811 | 0.735 | 0.555
42 | AUUACCCUCGUCCUCGAGUGA [Fam2.1 aminoacylation ribozyme variant] | 5.49 | 2.4 | 4.67 | 34.7 | 2.48 | 6.18
43 | AUUACCCUCGUCUUCGAGUGA [Fam2.1 aminoacylation ribozyme variant] | 5.17 | 3.24 | 5.15 | 29.4 | 2.8 | 7.17
44 | AUUACCCUGAUCACCGAGUGA [Fam2.1 aminoacylation ribozyme variant] | 7.42 | 3.74 | 7.33 | 42.1 | 3.08 | 6.75
45 | AUUACCCUGAUCAUCGAGUAA [Fam2.1 aminoacylation ribozyme variant] | 1.02 | 1.32 | 1.33 | 1.09 | 1.25 | 0.877
46 | AUUACCCUGAUCAUCGAGUGU [Fam2.1 aminoacylation ribozyme variant] | 3.28 | 2.24 | 4.23 | 5.33 | 1.81 | 5.04
47 | AUUACCCUGAUCAUCGCGUGA [Fam2.1 aminoacylation ribozyme variant] | 14.1 | 7.01 | 14.7 | 99.5 | 5.83 | 14.9
48 | AUUACCCUGAUCAUCUAGUGA [Fam2.1 aminoacylation ribozyme variant] | 11.2 | 6.47 | 13.5 | 56.9 | 5.67 | 15.6
49 | AUUACCCUGAUCAUGGAGUGA [Fam2.1 aminoacylation ribozyme variant] | 10.5 | 4.92 | 10.8 | 53.6 | 4.86 | 13
50 | AUUACCCUGAUCGUCGAGUGA [Fam2.1 aminoacylation ribozyme variant] | 0.865 | 0.862 | 0.75 | 0.434 | 0.89 | 0.86
51 | AUUACCCUGAUUAUCGAGUGA [Fam2.1 aminoacylation ribozyme variant] | 17.4 | 7.28 | 17.9 | 117 | 7.51 | 22
